Experimental findings from patent publication US20130129739A1 (Bayer, published 2013) are described below.

Values joined by “and” are separate entries in the source; they are usually repeats but may differ in a detail not shown here. Equal entries are not always repeated. A value given as a limit tells only on which side of the number the result lay.

Experiment [1] has as its target T1, human prolactin receptor (PRLR) on cells (human, UniProt P16471 25-622).
T1 sequence (looked up): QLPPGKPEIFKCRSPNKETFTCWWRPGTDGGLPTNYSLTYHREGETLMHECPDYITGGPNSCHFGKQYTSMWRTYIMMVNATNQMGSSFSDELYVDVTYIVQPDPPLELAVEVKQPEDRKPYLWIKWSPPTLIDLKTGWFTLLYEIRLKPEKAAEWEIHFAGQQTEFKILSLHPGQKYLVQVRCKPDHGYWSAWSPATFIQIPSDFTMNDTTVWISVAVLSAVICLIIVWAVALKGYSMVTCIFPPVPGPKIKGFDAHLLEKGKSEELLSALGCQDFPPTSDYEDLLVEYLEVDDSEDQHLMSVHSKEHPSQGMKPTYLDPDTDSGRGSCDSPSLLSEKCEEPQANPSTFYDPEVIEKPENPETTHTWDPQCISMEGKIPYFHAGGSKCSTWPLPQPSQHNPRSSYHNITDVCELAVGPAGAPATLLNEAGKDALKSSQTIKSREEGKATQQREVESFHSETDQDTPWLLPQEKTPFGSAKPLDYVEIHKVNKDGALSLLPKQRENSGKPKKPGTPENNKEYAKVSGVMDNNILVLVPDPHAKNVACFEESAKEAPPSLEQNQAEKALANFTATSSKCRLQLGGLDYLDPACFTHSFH
The experiment can be described thus: cell-based or functional assay.

Experiment [2] has as its target T1, human prolactin receptor (PRLR) on cells. The experiment can be described thus: FACS on human breast cancer cell line T47D, IgG1.
The target of experiment [3] is T2, rat prolactin receptor (PRLR) on Nb2 lymphoma cells (rat, UniProt P05710 20-610).
T2 construct: whole, on cells; also called rat PRLR
T2 sequence (looked up): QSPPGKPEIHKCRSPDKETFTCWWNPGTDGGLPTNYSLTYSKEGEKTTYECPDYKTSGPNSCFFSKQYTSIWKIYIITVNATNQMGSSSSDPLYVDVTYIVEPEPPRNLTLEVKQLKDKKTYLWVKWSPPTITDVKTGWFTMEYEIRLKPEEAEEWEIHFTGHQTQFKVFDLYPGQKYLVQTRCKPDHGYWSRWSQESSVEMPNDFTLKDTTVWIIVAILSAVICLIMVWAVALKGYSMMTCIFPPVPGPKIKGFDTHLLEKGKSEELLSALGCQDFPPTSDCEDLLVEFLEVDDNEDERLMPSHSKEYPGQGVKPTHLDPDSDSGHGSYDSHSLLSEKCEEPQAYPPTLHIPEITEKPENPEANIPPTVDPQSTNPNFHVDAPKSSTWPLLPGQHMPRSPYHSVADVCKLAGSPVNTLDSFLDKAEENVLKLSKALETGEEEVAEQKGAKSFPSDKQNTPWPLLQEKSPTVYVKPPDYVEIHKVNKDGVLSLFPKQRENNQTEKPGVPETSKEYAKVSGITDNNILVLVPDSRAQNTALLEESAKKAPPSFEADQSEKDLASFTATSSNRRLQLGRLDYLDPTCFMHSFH
The experiment can be described thus: FACS on rat lymphoma cell line Nb2, IgG1.

In experiment [4] the target is T3, extracellular domain of human PRLR (monomeric, soluble) (human, UniProt P16471 25-234).
T3 construct: also called ECD-PRLR; ECD of PRLR
T3 sequence: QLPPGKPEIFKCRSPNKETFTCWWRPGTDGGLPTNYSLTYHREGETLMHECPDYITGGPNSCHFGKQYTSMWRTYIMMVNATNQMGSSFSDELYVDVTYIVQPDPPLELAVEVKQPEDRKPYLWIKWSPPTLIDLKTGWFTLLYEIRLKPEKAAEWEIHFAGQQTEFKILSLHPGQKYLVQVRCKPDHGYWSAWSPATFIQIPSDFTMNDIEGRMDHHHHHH
The experiment can be described thus: SPR (Biacore), IgG1 directly immobilized, monomeric human PRLR ECD from HEK293 as analyte. On the technique in general: SPR reads the build-up and loss of mass on a sensor chip optically.

Experiment [5] deals with T4, murine prolactin receptor (PRLR) on cells (mouse, UniProt Q08501 20-608).
T4 sequence (looked up): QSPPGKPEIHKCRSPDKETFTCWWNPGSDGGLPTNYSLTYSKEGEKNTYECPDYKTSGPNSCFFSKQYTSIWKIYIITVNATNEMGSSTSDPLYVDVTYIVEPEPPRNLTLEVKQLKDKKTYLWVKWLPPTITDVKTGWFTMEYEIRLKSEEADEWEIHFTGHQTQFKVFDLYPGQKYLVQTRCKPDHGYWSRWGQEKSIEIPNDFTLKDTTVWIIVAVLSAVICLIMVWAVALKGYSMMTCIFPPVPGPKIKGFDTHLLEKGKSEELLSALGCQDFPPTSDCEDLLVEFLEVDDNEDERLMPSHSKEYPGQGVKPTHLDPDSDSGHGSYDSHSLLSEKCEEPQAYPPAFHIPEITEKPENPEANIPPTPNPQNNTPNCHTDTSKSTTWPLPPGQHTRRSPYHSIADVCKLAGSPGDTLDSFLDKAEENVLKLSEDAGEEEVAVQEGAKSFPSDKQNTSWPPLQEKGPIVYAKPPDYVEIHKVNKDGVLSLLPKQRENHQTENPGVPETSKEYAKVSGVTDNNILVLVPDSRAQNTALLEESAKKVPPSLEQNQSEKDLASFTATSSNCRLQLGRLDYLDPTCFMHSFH
The experiment can be described thus: cell-based or functional assay.

For experiment [6], the target named is T2, rat prolactin receptor (PRLR) on Nb2 …. Kind of experiment: cell-based or functional assay.
The target in experiment [7] is T4, murine prolactin receptor (PRLR) on …. Kind of experiment: flow cytometry on HEK293 cells stably expressing murine PRLR, PE anti-human IgG, fixed 0.37 µg/ml IgG. The protocol:
In order to determine the binding characteristics of the anti-PRLR antibodies on mouse and human PRLR expressed on cells, binding was tested by flow cytometry on HEK293 cells stably expressing the human and murine PRLR, respectively. The cells as well as the parental HEK293 cell line without PRLR were harvested, centrifuged and resuspended at approximately 5×10⁶ cells/ml in 1×PBS containing 2% FBS and 0.1% sodium azide (FACS buffer). The antibodies 005-C04, 001-E06 and HE06.642 were diluted to 2-fold final concentration in FACS buffer and added to appropriate sample wells (50 μl/well). For secondary antibody and autofluorescence controls, 50 μl FACS buffer was added to appropriate wells. 50 μl of cell suspension was added to each sample well. Samples were incubated at 4° C. for one hour, washed twice with cold FACS buffer and resuspended in FACS buffer containing PE-conjugated goat anti-human IgG at a 1:100 dilution. Following a 30 min incubation at 4° C., cells were washed twice with cold FACS buffer, resuspended in FACS buffer containing […] propidium iodide (Invitrogen, San Diego, Calif.) and analyzed by flow cytometry. […] This observation is consistent with the finding reported in example 9 about the missing efficacy of HE06.642 in the murine PRLR-dependent luciferase reporter gene assay. […]
For orientation: A flow cytometer gives signals particle by particle.

B1: 005-C04 (antibody, V domains shown)
VH: EVQLLESGGGLVQPGGSLRLSCAASGFTFSSYWMHWVRQAPGKGLEWVSDISSASSYTNYADSVKGRFTISRDNSKNTLYLQMNSLRAEDTAVYYCARGLDARRMDYWGQGTLVTVSS
VL: QSVLTQPPSASGTPGQRVTISCTGSSSNIGAGYVVHWYQQLPGTAPKLLIYRNNQRPSGVPDRFSGSKSGTSASLAISGLRSEDEADYYCAAWDDSLNGWLFGGGTKLTVLG
notes: Tested as human IgG1; also called IgG1 005-C04; 005-004
In general, EC50 refers to the concentration at which the effect is half-maximal. Low values mean a more potent agent, high ones a less potent agent. As usually defined, the Kd is the free concentration of one partner at which half of the binding sites on the other are occupied at equilibrium, for simple one-to-one binding. A lower Kd goes with a tighter complex. What is called koff is the rate constant with which the complex falls apart. Low readings indicate a long-lived complex, high ones a short-lived complex. In the case of B1, the “IC50, inhibition of prolactin-activated Ba/F cell proliferation (human PRLR)” value (“IC50, inhibition … (human PRLR)” for short) in experiment [1] is 1.29 µg/ml and 8.6 nM. This molecule also registered an EC50 in experiment [2] of 1.9 nM. Moreover, it took 0.5 nM to reach a half-maximal effect in experiment [3] (EC50). In experiment [4], this molecule displayed a Kd of 12.2 nM and a koff of 0.0093 s⁻¹.

B2: 006-H07 (antibody, V domains shown)
VH: QVELLESGGGLVQPGGSLRLSCAASGFTFEDHGMSWVRQAPGKGLEWVSLISWDDGSNKYYADSVKGRFTISRDNSKNTLYLQMNSLRAEDTAVYYCATSLRATAFDTWGQGTLVTVSS
VL: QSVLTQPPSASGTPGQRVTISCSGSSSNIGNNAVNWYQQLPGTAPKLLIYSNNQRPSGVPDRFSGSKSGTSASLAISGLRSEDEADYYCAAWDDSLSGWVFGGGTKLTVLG
notes: Tested as human IgG1
For B2, the EC50 in experiment [2] was 0.4 nM. In experiment [3], the binding result is “no binding”. Further, in experiment [4], binding was put at a Kd of 2 nM and the off-rate constant (koff) worked out at 0.0013 s⁻¹.

B3: XHA06.642 (antibody, V domains shown)
VH: EVQLVESGGDLVKPGGSLKLSCAVSGFTFSSYGMSWVRQTPDKRLEWVATVSSGGTYTYYPDSVKGRFTISRDNAKNTLYLQMSSLKSEDSAMYYCARHRGNYYATYYYAMDYWGQGTSVTVSS
VL: DIVLTQSPASLAVSLGQGATISCRASKSVSTSGYTYMHWYQQKPGQPPKLLIYLASNLESGVPARFSGSGSGTDFTLNIHPVEEEDAATYYCQHSGELPPSFGGGTKLEIKR
notes: Novartis antibody (WO2008/022295)
Regarding B3, the “IC50, prolactin-activated luciferase reporter gene activity, HEK293 cells with mPRLR” value in experiment [5] is > 50 mg/ml and > 333 nM. Besides, the “IC50, inhibition of prolactin-induced rat lymphoma cell proliferation (NB2 cells)” value in experiment [6] was 10 µg/ml and 67 nM. For the same molecule, the EC50 stood at 1.5 nM in experiment [2] and 1.1 nM in experiment [3]. Besides, the equilibrium dissociation constant (Kd) in experiment [4] came out at 1.2 nM. Moreover, the koff in experiment [4] was 0.00013 s⁻¹.

B4: 006-H08 (antibody, V domains shown)
VH: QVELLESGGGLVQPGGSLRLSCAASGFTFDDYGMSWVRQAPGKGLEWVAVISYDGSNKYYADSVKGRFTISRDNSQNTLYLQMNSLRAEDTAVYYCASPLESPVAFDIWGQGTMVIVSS
VL: DIVLTQPPSASGTPGQRVTISCSGSNSNIGSNPVNWYQQLPGTAPKLLIYDNNKRPSGVPDRFSGSKSGTSASLAISGLRSEDEADYYCQSYDTGLSGWVFGGGTKLTVLG
notes: Tested as human IgG1; also called IgG1 006-H08
Take B4: in experiment [1], the “IC50, inhibition … (human PRLR)” value is 0.15 µg/ml and 1 nM; the “IC50, prolactin-activated luciferase reporter gene activity, HEK293 cells with hPRLR” value was 0.83 mg/ml and 5.5 nM. Further, the response in experiment [2] was half-maximal at 1.3 nM (EC50). For the same molecule, in experiment [3], the binding result is on record as “no binding”. Further, in experiment [4], the Kd is 0.7 nM and the koff was determined as 0.00024 s⁻¹.

B5: HE06.642 (antibody, V domains shown)
VH: EVQLVESGGGLVQPGGSLRLSCAVSGFTFSSYGMSWVRQAPGKGLEWVATVSSGGTYTYYPDSVKGRFTISRDNSKNTLYLQMNSLRAEDTAVYYCARHRGNYYATYYYAMDYWGQGTLVTVSS
VL: DIVLTQSPDSLAVSLGERATINCKASKSVSTSGYTYMHWYQQKPGQPPKLLIYLASNRESGVPDRFSGSGSGTDFTLTISPVQAEDVATYYCQHSGELPPSFGQGTKLEIKR
notes: Human Engineered Novartis antibody (WO2008/022295); tested as human IgG1
As to B5, the binding result in experiment [7] is on record as “no binding (tested: 0.37 µg/ml)”. In experiment [5], the “IC50, inhibition of prolactin-activated Ba/F cell proliferation (murine PRLR)” value was > 30 mg/ml and > 200 nM. Also, in experiment [1], the “IC50, inhibition … (human PRLR)” value was 0.34 µg/ml and 2.2 nM; the “IC50, prolactin-activated luciferase reporter gene activity, HEK293 cells with hPRLR” value was 0.63 mg/ml and 4.2 nM. In experiment [2], the midpoint of the response, the EC50, lay at 1.8 nM. Moreover, in experiment [3], the EC50 came out at 0.9 nM. For the same molecule, in experiment [4], binding was put at a Kd of 0.3 nM and the off-rate (koff) was 0.00032 s⁻¹.
